Values joined by “and” are separate entries in the source; they are usually repeats but may differ in a detail not shown here. Identical values can stand only once.

Experiment [1] concerns the target T1, Full-length human calmodulin (CaM) (human, UniProt P0DP23 1-149). Briefly: ITC. Background: Isothermal titration calorimetry measures the heat released or taken up as one component is titrated into another.
Experiment [2] deals with T1, Full-length human calmodulin (CaM). Put plainly: NMR titration.

Turning to SPANSFHFKEAWKHAIQKAKHMPDPWA [eEF-2KCBD, calmodulin-binding segment of human eEF-2K (residues 74-100)], the equilibrium dissociation constant (Kd) in experiment [1] was 153 nM and 137 nM; in experiment [2] it was 36000 nM. Moreover, the dH in experiment [1] is -16.6 kcal/mol.

The term Kd denotes the constant that tells how readily two partners part at equilibrium.
